The source of these data is patent publication US20260347496 (published 2026).

Positions count from the first letter of the chain named. Values joined by “and” are separate entries in the source; they are usually repeats but may differ in a detail not shown here. Equal entries are not always repeated. Where two headings read alike, the source gives them in different places.

Experiment [1] addresses T1, CD24 biotinylated (ACRO CD4-H82E9) (human, UniProt P25063).
T1 chain: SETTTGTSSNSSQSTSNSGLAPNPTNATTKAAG
The experiment is described as follows: SPR.

The target of experiment [2] is CD24(27-56aa)-GST NEOX-4 (human). As to the kind of experiment: ELISA. Background: ELISA stands for enzyme-linked immunosorbent assay.
Chain of CD24(27-56aa)-GST NEOX-4 (human) (chain, as listed by the source): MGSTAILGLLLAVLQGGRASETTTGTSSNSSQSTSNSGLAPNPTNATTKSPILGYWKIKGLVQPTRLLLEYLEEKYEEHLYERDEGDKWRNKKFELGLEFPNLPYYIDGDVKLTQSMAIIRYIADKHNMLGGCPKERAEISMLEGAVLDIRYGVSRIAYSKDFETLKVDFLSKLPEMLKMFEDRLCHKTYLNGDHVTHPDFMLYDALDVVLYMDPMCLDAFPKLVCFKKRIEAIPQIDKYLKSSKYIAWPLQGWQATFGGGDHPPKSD
Experiment [3] has the same target. The experiment is described as follows: ELISA. The source holds these as a separate data set.
The target is the same in experiment [4]. As to the kind of experiment: ELISA. The source holds these as a separate data set.
For experiment [5], the target named is T2, CD24 (cell surface) (human).
T2 chain: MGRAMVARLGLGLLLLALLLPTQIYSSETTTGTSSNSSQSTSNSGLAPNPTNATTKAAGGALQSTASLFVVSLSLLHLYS
The experiment is described as follows: FACS, NALM6. In general terms: A flow cytometer gives signals particle by particle.

The target in experiment [6] is T2, CD24 (cell surface). The experiment is described as follows: FACS, MDA-MB-468.
Experiment [7] concerns the target T1, CD24 biotinylated (ACRO CD4-H82E9). As to the kind of experiment: SPR. (SPR reads the build-up and loss of mass on a sensor chip optically.)

B1: G14 (antibody, V domains shown)
VH: EVKLEESGGGLVQPGGSMKLSCVASGLTFSNYWMNWVRQSPEKGLEWVALIRLYSDNYAIHYAESVKGRFTISRDDSKSSVYLQMNNLRAEDTGIYYCTTGTDYWGQGTTLTVSS
VL: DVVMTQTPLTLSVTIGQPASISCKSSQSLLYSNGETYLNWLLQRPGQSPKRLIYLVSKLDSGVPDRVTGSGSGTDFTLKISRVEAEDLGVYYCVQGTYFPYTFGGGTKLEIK
In the case of B1, the Kd (in general, the constant that tells how readily two partners part at equilibrium) in experiment [1] came out at 12.1 nM. The EC50 (in general, the concentration giving half of the maximal effect) is 0.0248 µg/mL and 0.00988 µg/mL with CD24(27-56aa)-GST NEOX-4 [2]; 0.0366 µg/mL with CD24(27-56aa)-GST NEOX-4 [3]; 0.031 µg/mL with CD24(27-56aa)-GST NEOX-4 [4]; 7.3 µg/mL and 18.5 µg/mL with CD24 (cell surface) [5].

B2: huG14-301 (antibody, V domains shown)
VH: EVQLVESGGGLVKPGGSLRLSCAASGLTFSNYWGNWVRQAPGKGLEWVALIRLYSDNYAIHYAESVKGRFTISRDDSKSTVYLQMNSLKTEDTAVYYCTTGTDNWGQGTTVTVSS
VL: DVVMTQSPLSLPVTLGQPASISCKSSHSLLYSNKRTYLNWLQQRPGQSPRRLIYLVSKLDSGVPDRFSGSGSGTDFTLKISRVEAEDLGVYYCIQGTYFPYTFGQGTKLEIK
For B2, the Kd in experiment [1] worked out at 7.58 nM. Moreover, the EC50 in the experiment with CD24 (cell surface) [5] and with CD24 (cell surface) [6] was 0.256 µg/mL in each case.

B3: huG14-124 (antibody, V domains shown)
VH: B2 VH with N104Y
VL: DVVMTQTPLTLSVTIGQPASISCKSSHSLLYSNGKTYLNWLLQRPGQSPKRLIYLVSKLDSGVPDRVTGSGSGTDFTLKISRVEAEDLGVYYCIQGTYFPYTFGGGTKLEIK
For B3, the Kd in experiment [7] amounted to 19 nM. The EC50 in the experiment with CD24(27-56aa)-GST NEOX-4 [4] stood at 0.00406 µg/mL; with CD24 (cell surface) [5] it was 0.609 µg/mL; with CD24 (cell surface) [6], 0.827 µg/mL.

B4: huG14-124-8 (antibody, V domains shown)
VH: B2 VH with N104Y
VL: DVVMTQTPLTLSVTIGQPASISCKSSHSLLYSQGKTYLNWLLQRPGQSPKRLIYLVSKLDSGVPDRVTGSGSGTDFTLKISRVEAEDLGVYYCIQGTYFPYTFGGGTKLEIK
Take B4: binding in experiment [7] was characterised by a dissociation constant (Kd) of 10.6 nM.

B5: huG14-235 (antibody, V domains shown)
VH: B2 VH
VL: B2 VL with P12Y, L15P, Q17R, Q42L, R44K, R50Q
B5: binding in experiment [1] was characterised by a dissociation constant (Kd) of 2.69 nM. For the same molecule, the half-maximal effective concentration (EC50) with CD24 (cell surface) [5] and in the experiment with CD24 (cell surface) [6] was 0.184 µg/mL each time.

B6: huG14-234 (antibody, V domains shown)
VH: B2 VH with N104Y
VL: B2 VL with L15P, Q17R, R35K, Q42L, R44K, R50Q
Molecule B6 gave a Kd in experiment [1] of 3.62 nM. In addition, the EC50 with CD24 (cell surface) [5] and with CD24 (cell surface) [6] was 0.305 µg/mL each time.
